From the nanobody polyreactivity screen of Harvey et al. (2022)

Assay: yeast display, Sf9 membrane polyspecificity reagent, FACS + sequencing; frameworks hold sequencing errors
In short: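 Sorting gates, low and high (top ~1%), were placed on anti-HA fluorescence to track expression and on streptavidin fluorescence to track reagent binding. A clone's polyreactivity label is taken from the gate it came out of. The reagent was 10% biotinylated, detergent-solubilized Sf9 membrane, applied for 1 hour at 4 °C to galactose-induced yeast display cells.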

QVQLVESGGGLVQAGGSLRLSCAASGSTFRYYAMGWYRQAPGKERELVAAISGSGGRTYYADSVKGRFTISRDNAKNTVYLQMNSLKPEYTAVYYCNTRGRSTDYDYWGQGTQVTVSS
polyreactivity (PSR sort gate): high polyreactivity

QVQLVESGGGLVQAGGSLRLSCAASGGTFIRYAMGWYRQAPGKERELVAAISSSGGSTYYADSVKGRFTISRDNAKNTVYLQMNSLKPEDTAVYYCNGRQSRFKYDYWGQGTQVTVSS
polyreactivity (PSR sort gate): high polyreactivity

QVQLVESGGGLVQAGGSLRLSCAASGYTFFLNVMGWYRQAAGKEWELVAAISYSGGSTNYADSVKGRFTISRDNAKNTVYLQMNSLKPEDTAVYYCAVTTYSGLYGFEYWGQGTQVTVSS
polyreactivity (PSR sort gate): low polyreactivity

QVQLVESGGGLVQAGGRLRLTCAASGSIFLEYTMGWSRQAPGKEREVVASISWGGGSTYYADSVKGRFTISRDNAKNTVYLQMNSLKPEDTAVYYCAAVTKLSGIRYNYWGQGTQVTVSS
polyreactivity (PSR sort gate): low polyreactivity

QVQLVESGGGLVQAGGSLRLSCAASGLTFDTYAMGWYRQAPGKERELVAAISIGGRTNYADSVKGRFTISRDNAKNTVYLQMNSLKPEDTAVYYCAVGAVVPGRRRRTYYYWGQGTQVTVSS
polyreactivity (PSR sort gate): high polyreactivity

QVQLVESGGGLVQAGGSLRLSCAASGRIFFLYAMAWYRQAPGKEREFVAAISSSGGSTYYADSVKGRFTISRDNAKNTVYLKMNSLKPEDTAVYYCNADATWSGYIVSYDYWGQGTQVTVSS
polyreactivity (PSR sort gate): low polyreactivity

QVQLVESGGGLVQAGGSRRLSCAASGFTFLAYALGWYRQAPGKERELVAAISWDGGSTYYADSVKGRFTISRDNAKNTVYLQMNSLKPEDTAVYYCNRRSRRQGGYWGQGTQVTVSS
polyreactivity (PSR sort gate): high polyreactivity

QVQLVESGGGLVQAGGSLRLSCAASGSTFTGYAMGWYRQAPGKERELVAGISVTGGNTYYADSVKGRFTISRDNAKKTVYLQMNSLKPEDTAVYYCNAVVLSYYAGEMDYWGQGTQVTVSS
polyreactivity (PSR sort gate): low polyreactivity

QVQLVESGGGLLQAGGSLRLSCAASGSTFTAYAMGWYRQAPGKERELVADISDSGGSTYYADSEKGRFTISRDNAKNTVYLQINSLKPEDTAVYYCAVHVRAFVVSKFDSRGQGTQVTVSS
polyreactivity (PSR sort gate): low polyreactivity

QVQLVESGGGLVQAGGSLRLSCAASGFIIDRNAMGWSRPAPGKERELVAAITWSTTSTYYADSVKGRFTISRDNAKNTVYLQMNSLKPEDTAVYYCAADITSPAYATYDYWGQGTQVTVSS
polyreactivity (PSR sort gate): low polyreactivity

QVQLVESGAGLVQAGGSLRLSCAASGRTFVYNAMGWYRQAPGKERELVAAISSDGASTYYADSVKGRFTISRDNAKNTVYLQMNRLNPEDTAVYYCAADFSYYSYEHYYWGQATQVTVSS
polyreactivity (PSR sort gate): low polyreactivity

QVQLVESGGGLVQAGGSLRLSCAASVRIFRYYVMGWYRQAPGKVRELVAAITSGTSTNFAESVKGRFTISRDNAKNTVYLQMNRLKPEDTAVFYCAVRSPRGGRTRFNSNYWGQGTQVTVSS
polyreactivity (PSR sort gate): high polyreactivity

QVQLVESGGGLVQAGGSLRLSCAASGIIFRYYAMGWYRQAPGKEREFVAAITWRGTSTYYADSVKGRFTISRDNAKNTVYLQMNSLKPEDTAVYYCATATAFPYYGLDYWGQGNQVTVSS
polyreactivity (PSR sort gate): high polyreactivity

QVQLVESGGGLVQAGASLRLSCAASGRIYPVYTMGWYRQAPGKERELVAAITSSGGSTYYADSVKGSFTISRDNAKNTVYLQMNSLKPEDTAVYDCAKRAGWAYYYWGQGTQVTVSS
polyreactivity (PSR sort gate): high polyreactivity

QVQLVESGGGLVQAGGSLRLSCAASGITFIYYAMGWYRQAPGKERELVAAITWRGGSTYYADSVKGRFTISRDNAKYTVYLQMNSLKPEDTAVYYCNKGGISGRDYWGQGTQVTVSS
polyreactivity (PSR sort gate): high polyreactivity

QDHLVESGGGLVQAGGSLRVSCAASGLVYGQYAMGWYRPAPGKERELVAAINWSGGRTYYADSVKGRFTISRDNAKNTVYLQMNSLKPEDTAVYYCAADDPQDQDYENNYWGQGTQVNVSS
polyreactivity (PSR sort gate): high polyreactivity

QVQLVESGGGLVQAGGSLRLSCAASGRIFRYNAMVWYRQAPGKERELVAAITWSGTSTYYADSLKGRFTLSRDNAKNTVYLHMNSLKPEDTAVYYCNADRVDRELFTFDYWGQGTQVTVSS
polyreactivity (PSR sort gate): high polyreactivity

QVQLVESGGGLVQAGGSLRLSCAASGSIFADNGMGWYRQAPGKERELVAAINSGSTYADSVKGRFTISRDNAKNTVYLQMNSLKPEDTAVYYCNADGVTSGRVDYWGQGTQVTVSS
polyreactivity (PSR sort gate): low polyreactivity

QVQLVESGGGLVQAGGSLRLSCAASGIIFYRNTMGWYRQAPGKERELVAAIRRGGNTYYADSVKGRFTISRDNAKNTVYLQMNSLKPEDTAVYYCAASAGPRASYYYWGQGTQVTVSS
polyreactivity (PSR sort gate): high polyreactivity

QVQLVESGGGLVQAGGSLRLSCSASGRIFVIYDMGWYRQAPGKEWEFVAAISWRTGSTYYADSVKGRFTISRDNAKNTVYLQMNSLKPEDTAVYYCAASIGLVHYDYWGQGTQVTVSS
polyreactivity (PSR sort gate): low polyreactivity

QVQLVESGGALVQAGGSLRLSCAASGIIFRYNAMGWYRQAPGKDREVVAAISWSTGSTYYADSVKGRFTISRDNAKNTVYLQMNSLKPEDTAVYYCNAYWLRHIYNYWGQGSQVTVSS
polyreactivity (PSR sort gate): high polyreactivity

QVQLVESGGGLVQAGGSLRLSCAASGFTFDTYTMGWYRQAPGKERELVAAISSGGNTNYADSVKGRFTISRDNAKNTVYLQMNSLKPEDTAVYYCARGATLLQYSYWGVYEYDSWGQGTQVTVSS
polyreactivity (PSR sort gate): low polyreactivity

QVQLVESGGGLVQAGGSLRISCAASGRIFYYYDMGWYRQAPGKERELVAAISRSGGRTYYADSVKGRFTISRDNANNTVYLHMNSLKPEDTAVYYCNVVRQGGTLGYDYWGQGTQVTVSS
polyreactivity (PSR sort gate): high polyreactivity

QVQLVESGGGLVQAGGSLRLSCAASGLTFVDYDMGWYRQAPGKERELVADINSGGYTYYADSVKGRFTISRDNAKNTVYLQMNSLKPEDTAVYYCAADDGWGYISSYDYEYWGQGTQVTVSS
polyreactivity (PSR sort gate): high polyreactivity

QVQLVESGGGLVQAGGSLRLSCAASGRTIPAYTMGWYRQAPGKERELVAAINWSGGSTYYADSVKARFTISRDNAKNCVYLQMISLNPEDTAVYYCARTSRYYGFRSYGTLDYWGQGTQVTVSS
polyreactivity (PSR sort gate): high polyreactivity

QVQLVESGGGLVQAGGSLRLSCAASGSTFVYNTMGWSRQAPGKERELVADITWRGASTYYADSVKGRFTISRDNAKNTVYLQMNSLKPEDTAVYYCAADYYSATGSYAYDYWGQGTQVTVSS
polyreactivity (PSR sort gate): low polyreactivity

QVQLVESGGGLVQAGGSLRLTCDASGSIFSVYAMGWYRQAPGKERELVAAITSSGGITYYADSVKGRFTISRDNSKNTVYLQMNSLKPEDTAVYYCATDRVLHYWVLSMDYWGQGTQVTVSS
polyreactivity (PSR sort gate): low polyreactivity

QVQLVVSGGGLVQAGGSLRLSCAASGFTFSSNAMGWYRQAPGKECELVAAISTSGASTYYADSVKGRFTISRDNAKNTVYLQMNSLKPADSAVYYCNVPQWHRWYGYPGEDYDYWGQGTQVTVSS
polyreactivity (PSR sort gate): high polyreactivity

QVQLVESGGGLVQAGGSLRLSCAASGSIFQYNAMGWYRQAPGTERELVAAITWTGTSTYADSVKGRFTISRDNAKNTVYLQMNSLKPEDTAVYYCAARYYAPRWFRYDYWGQGTQVTVSS
polyreactivity (PSR sort gate): low polyreactivity

QVQLVDSGGGLVQAGGSLRLSCAASGFIFGKYAMGWYRPAPGKEREFVAAITGNGGSTYYADSVKGRFTISRDNAKNTVYLQMNSLKPEDTAVYYCAADASWELFAWAHYDYWGQGTQVTVSS
polyreactivity (PSR sort gate): low polyreactivity

QVQLVESGGGLDQAGGSLRLSCAASGSTFQPYAMGRYRQAPGKEREFVATISGSAGSTYYADSVKGRFKISRDNANYTVYLQMNSLKPEDTAVYYCNADSGWFGYDYWGQGNQVTVSS
polyreactivity (PSR sort gate): low polyreactivity

QVQLVDSGGGLVQAGGSLRLSCAASGRTFGYNAMGCYRQATGKERELVAAISSSGGSTYYADSVKGRFTISRDYAKNTVYLQMNSLKPEDTAVYYCATQGYSWAHGSDFWGQGTQVTVSS
polyreactivity (PSR sort gate): low polyreactivity

QVQLVESGGGLVQAGGSLRLSCAASGITFYRYAMGWYRQAPGKEREFVAAITWGSTYYADSVKGRFTISRDNAKNTVYLQMNSLTPEDTAVYYCNADWGGFWQHRELDSWGQGTQVTVSS
polyreactivity (PSR sort gate): low polyreactivity

QVQLVESGGGLVQAGGSLRLSCAASGSIFSGYAMGWYRQAPGKERELVAAISGSGGSTFYADSVKGRFTISRDNAKNTVYLQMNSLKPEDTAVYYCAARRIAPYGRYDYWGQGTQVTVSS
polyreactivity (PSR sort gate): low polyreactivity

QVQLVESGGGLVQAGGSLRLSCAASGFTFKSYAMGWYRPAPGKERELVAGITRTGVSTYYADSVKGRFTISRDNAKNTVYLLMNSLKPEDTAVYYCAAGIRHIYQSYAFYKFDYWGQGTQVTVSS
polyreactivity (PSR sort gate): high polyreactivity

QVQLVESGRGLVQAGGSLRLSCAASGRIFRYYTMGCYRQAPGKERELVASITYRGTSTYYADSVKGRFTISRDNAKNTVYLQMTSLKPEDTAVYYCNKDLFFRSISSKYDYWGQGTQVTVSS
polyreactivity (PSR sort gate): high polyreactivity

KVQLGESGGGLVQAGGSLRLSCAASGFIFGYNGMGWYRQAPGKERELVAGITYSDGSTYYADSVKGRFTISRDNAKNTVYLQMNSLKPEDTAVYYCAVDVIYYWAEDYDYWGQGTQVTVSS
polyreactivity (PSR sort gate): low polyreactivity

QVQLVESGGGLVQAGGSLRLSCAASGSTFAVIVMGWYRQAPGKERELVATITYRDGRTYYADSVKGRFTISRDNAKNTVYLQMNSLKPEDTAVYYCAADDEYKQEAEMDSWGQGTQVTVSS
polyreactivity (PSR sort gate): low polyreactivity

QVQLVESGGGLVQAGGSLRLSCAASGSTFVQYAKGWSRQAPGKERELVATISKSGGDTYADSVKGRFTISRDNAKNTVYLQMNSLKPEDTAVYYCAAGYTWVSHRYRYAYNYWGQGTQVTVSS
polyreactivity (PSR sort gate): low polyreactivity

QVQLVESGGGLVQAGGSLRLSCAASGSTFYFNAMGWYRQAPGKERELVAAIDWSGGSTYYADSVKGRFTISRDNAKNTVYLQMNSLKPEDTAVYYCNADNYEWGNNYGYWGQGTQVTVSS
polyreactivity (PSR sort gate): low polyreactivity

QDQLVESGGGLVQAGGSLRLSCASSGSTFYYKAMGWSRQEPGKERELVARISRSGGSTYADSVKGRFTISRDNAKYTVYLQMNSLKPEDTAVYYCNADAYGTPEFTSYAVRYDYWGQGTQVTVSS
polyreactivity (PSR sort gate): low polyreactivity

QVQLVESGGGLVQAGGSLRLSCAATGRISFRILWDGIDRRLGKKGSWLPLLTNTGSTNYADSVKARFTISRDNAKNTVYLQMNSLKPEDTAVYYCNADPTGGSSYPAYFEYDYWGQGTQGTVSS
polyreactivity (PSR sort gate): low polyreactivity

QVQLVESGGGLVQAGGSLRLSSAASGRTFSAYAMGWYRQAPGKERELVARITSVDSTNYADSVKGRFTISRDNAKNTVYLQMNSLKPEDTAVYYCNVVNEHQSDFVVPFDYNHWGQGTQVTVSS
polyreactivity (PSR sort gate): low polyreactivity
